In US20240059797A1 (GRITSTONE BIO, published 2024):

The binders below were run against HLA-A*02:01_… (HLA-PEPTIDE target G8), recombinant complex (human, enzymatically biotinylated (BirA) for screening and functional assays) (assay: scFv PPE ELISA).

fold selective binding to target pHLA over minipool of negative control pHLAs [fold] | Binder
≥ 3 | G8(1A03) scFv (scFv, V domains shown) VH: QVQLVQSGAEVKKPGASVKVSCKASGGTFSRSAITWVRQAPGQGLEWMGWINPNSGATNYAQKFQGRVTMTRDTSTSTVYMELSSLRSEDTAVYYCARDDYGDYVAYFQHWGQGTLVTVSS VL: DIQMTQSPSSLSASVGDRVTITCRASQSITSYLNWYQQKPGKAPKLLIYDASNLETGVPSRFSGSGSGTDFTLTISSLQPEDFATYYCQQNYNSVTFGQGTKLEIK
≥ 3 | G8(1A04) scFv (scFv, V domains shown) VH: QVQLVQSGAEVKKPGASVKVSCKASGYPFIGQYLHWVRQAPGQGLEWMGIINPSGDSATYAQKFQGRVTMTRDTSTSTVYMELSSLRSEDTAVYYCARDLSYYYGMDVWGQGTTVTVSS VL: DIQMTQSPSSLSASVGDRVTITCWASQGISSYLAWYQQKPGKAPKLLIYAASSLQSGVPSRFSGSGSGTDFTLTISSLQPEDFATYYCQQSYNTPWTFGPGTKVDIK
≥ 3 | G8(1A06) scFv (scFv, V domains shown) VH: QVQLVQSGAEVKKPGASVKVSCKASGYTFTNYYMHWVRQAPGQGLEWMGWMNPIGGGTGYAQKFQGRVTMTRDTSTSTVYMELSSLRSEDTAVYYCARVYDFWSVLSGFDIWGQGTLVTVSS VL: DIQMTQSPSSLSASVGDRVTITCRASQAISNSLAWYQQKPGKAPKLLIYAASTLQSGVPSRFSGSGSGTDFTLTISSLQPEDFATYYCGQSYSTPPTFGQGTKLEIK
≥ 3 | G8(1C11) scFv (scFv, V domains shown) VH: QVQLVQSGAEVKKPGASVKVSCKASGGTLSSYPINWVRQAPGQGLEWMGWISTYSGHADYAQKLQGRVTMTRDTSTSTVYMELSSLRSEDTAVYYCARSYDYGDYLNFDYWGQGTLVTVSS VL: DIQMTQSPSSLSASVGDRVTITCQASQDISNYLNWYQQKPGKAPKLLIYAASSLQSGVPSRFSGSGSGTDFTLTISSLQPEDFATYYCQQSYSIPPTFGGGTKVDIK
≥ 3 | G8(1D02) scFv (scFv, V domains shown) VH: EVQLLESGGGLVQPGGSLRLSCAASGFTFSSYWMSWVRQAPGKGLEWVSSISGRGDNTYYADSVKGRFTISRDNSKNTLYLQMNSLRAEDTAVYYCARASGSGYYYYYGMDVWGQGTTVTVSS VL: DIQMTQSPSSLSASVGDRVTITCQASQDISNYLNWYQQKPGKAPKLLIYAASSLQSGVPSRFSGSGSGTDFTLTISSLQPEDFATYYCQQSYSAPYTFGGGTKVEIK
≥ 3 | G8(1B03) scFv (scFv, V domains shown) VH: EVQLLESGGGLVQPGGSLRLSCAASGFTFSDYYMSWVRQAPGKGLEWVSGINWNGGSTGYADSVKGRFTISRDNSKNTLYLQMNSLRAEDTAVYYCARVEQGYDIYYYYYMDVWGKGTTVTVSS VL: DIQMTQSPSSLSASVGDRVTITCRASQSISSYLNWYQQKPGKAPKLLIYKASSLESGVPSRFSGSGSGTDFTLTISSLQPEDFATYYCQQSYSAPYTFGPGTKVDIK
≥ 3 | G8(1H08) scFv (scFv, V domains shown, also called G8-P1H08) VH: QVQLVQSGAEVKKPGASVKVSCKASGYTFGNYFMHWVRQAPGQGLEWMGMVNPSGGSETFAQKFQGRVTMTRDTSTSTVYMELSSLRSEDTAVYYCAASTWIQPFDYWGQGTLVTVSS VL: DIQMTQSPSSLSASVGDRVTITCRASQGINSYLAWYQQKPGKAPKLLIYDASNLETGVPSRFSGSGSGTDFTLTISSLQPEDFATYYCQQHNSYPPTFGQGTKLEIK

These binders were tested against T1, HLA-A*01:01_… (HLA-PEPTIDE target G2), recombinant biotinylated complex (human, enzymatically biotinylated (BirA)) (assay: phage panning, scFv ELISA;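 note: scFv binders from three to four bead panning rounds, tested as PPEs by ELISA on streptavidin plates carrying peptide-HLA complex (2 µg/ml), detected via anti-V5 and HRP anti-mouse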).
T1 construct: also called G2-pHLA
Procedure: Phage library screening was carried out according to the overall screening design described above. Three to four rounds of bead-based panning were performed to identify scFv binders to each peptide-HLA complex. For each round of panning, an aliquot of starting phage was set aside for input titering and the remaining phage was depleted three times against Dynabead M-280 streptavidin beads (Life Technologies) followed by a depletion against Streptavidin beads pre-bound with 100 μmoles of pooled negative peptide-HLA complexes. For the first round of panning, 100 μmoles of peptide-HLA complex bound to streptavidin beads was incubated with depleted phage for 2 hours at room temperature with rotation. Three five-minute washes with 0.5% BSA in 1×PBST (PBS+0.05% Tween-20) followed by three five-minute washes with 0.5% BSA in 1×PBS were utilized to remove any unbound phage to the peptide-HLA complex bound beads. To elute the bound phage from the washed beads, 1 ml 0.1M TEA was added and incubated for 10 minutes at room temperature with rotation. The eluted phage was collected from the beads and neutralized with 0.5 ml 1M Tris-HCl pH 7.5. The neutralized phage was then used to infect log growth TG-1 cells (OD₆₀₀=0.5) and after an hour of infection at 37° C., cells were plated onto 2YT media with 100 μg/ml carbenicillin and 2% glucose (2YTCG) agar plates for output titer and bacterial growth for subsequent panning rounds.
96-well and/or 384-well streptavidin coated plates (Pierce) were coated with 2 μg/ml peptide-HLA complex in HLA buffer and incubated overnight at 4° C. Plates were washed three times between each step with PBST (PBS+0.05%). The antigen coated plates were blocked with 3% BSA in PBS (blocking buffer) for 1 hour at room temperature. After washing, scFv PPEs were added to the plates and incubated at room temperature for 1 hour. Following washing, mouse anti-v5 antibody (Invitrogen) in blocking buffer was added to detect scFv and incubated at room temperature for 1 hour. After washing, HRP-goat anti-mouse antibody (Jackson ImmunoResearch) was added and incubated at room temperature for 1 hour.

binding result | Binder
binds | G2(1D06) scFv (scFv, V domains shown) VH: QVQLVQSGAEVKKPGSSVKVSCKASGYTFTSQYMHWVRQAPGQGLEWMGRIIPLLGIVNYAQKFQGRVTITADESTSTAYMELSSLRSEDTAVYYCARDKNYYGMDVWGQGTTVTVSS VL: EIVMTQSPATLSVSPGERATLSCRASQSVSRNLAWYQQKPGQAPRLLIYGASTRATGIPARFSGSGSGTEFTLTISSLQSEDFAVYYCQHYGYSPVTFGQGTKLEIK
binds | G2(2D04) scFv (scFv, V domains shown) VH: QVQLVQSGAEVKKPGASVKVSCKASGYTFSNFLINWVRQAPGQGLEWMGWINPNSGGTNYAQKFQGRVTMTRDTSTSTVYMELSSLRSEDTAVYYCASERELPFDIWGQGTMVTVSS VL: DIQMTQSPSSLSASVGDRVTITCRASQSISSWVAWYQQKPGKAPKLLIYGASNLESGVPSRFSGSGSGTDFTLTISSLQPEDFATYYCQQSYSTPYSFGQGTKLEIK
binds | G2(1E03) scFv (scFv, V domains shown) VH: QVQLVQSGAEVKKPGASVKVSCKASGYTFTGYYMHWVRQAPGQGLEWMGWMNPNSGNTGYAQKFQGRVTMTRDTSTSTVYMELSSLRSEDTAVYYCATYDDGMDVWGQGTTVTVSS VL: DIQMTQSPSSLSASVGDRVTITCRASQSISHYLNWYQQKPGKAPKLLIYGASSLQSGVPSRFSGSGSGTDFTLTISSLQPEDFATYYCQQSYTTPWTFGQGTRLEIK
binds | G2(1B08) scFv (scFv, V domains shown) VH: QVQLVQSGAEVKKPGASVKVSCKASGYTFTNYHMHWVRQAPGQGLEWMGWIHPDSGGTSYAQKFQGRVTMTRDTSTSTVYMELSSLRSEDTAVYYCARNWNLDYWGQGTLVTVSS VL: DIQMTQSPSSLSASVGDRVTITCRASQSISNWLAWYQQKPGKAPKLLIYAASSLQSGVPSRFSGSGSGTYFTLTISSLQPEDFATYYCQQSYSSPYTFGQGTKLEIK
binds | G2(1C06) scFv (scFv, V domains shown) VH: QVQLVQSGAEVKKPGASVKVSCKASGYTFTDYQMFWVRQAPGQGLEWMGWINPNSGGTNYAQKFQGRVTMTRDTSTSTVYMELSSLRSEDTAVYYCAKGGGGYGMDVWGQGTTVTVSS VL: DIQMTQSPSSLSASVGDRVTITCRASQGISNYLAWYQQKPGKAPKLLIYAASSLQSGVPSRFSGSGSGTDFTLTISSLQPEDFATYYCQQSYSDQWTFGQGTKVEIK
binds | G2(2A09) scFv (scFv, V domains shown) VH: QVQLVQSGAEVKKPGASVKVSCKASGGTFSSYAISWVRQAPGQGLEWMGWINPNSGGTNYAQKFQGRVTMTRDTSTSTVYMELSSLRSEDTAVYYCAAMGIAVAGGMDVWGQGTLVTVSS VL: DIQMTQSPSSLSASVGDRVTITCRASQSISRWLAWYQQKPGKAPKLLIYAASSLQSGVPSRFSGSGSGTDFTLTISSLQPEDFATYYCQQSYLPPYSFGQGTKVEIK
binds | G2(2F01) scFv (scFv, V domains shown) VH: QVQLVQSGAEVKKPGASVKVSCKASGYTFTSYYMHWVRQAPGQGLEWMGMINPRDDTTDYARDFQGRVTMTRDTSTSTVYMELSSLRSEDTAVYYCALSGNYYGMDVWGQGTTVTVSS VL: DIQMTQSPSSLSASVGDRVTITCQASQDISNYLNWYQQKPGKAPKLLIYGASRLQSGVPSRFSGSGSGTDFTLTISSLQPEDFATYYCQEGITYTFGQGTKVEIK

Each binder was assayed against T1, HLA-A*01:01_… (HLA-PEPTIDE target G2), … (assay: BLI, pHLA on sensor, Fab titrated, 1:1 model).

Kd [nM] | koff [s⁻¹] | kon [M⁻¹ s⁻¹] | Binder
49.9 | 0.028 | 581000 | G2(1H11) Fab (Fab, V domains shown, Fab) VH: QVQLVQSGAEVKKPGASVKVSCKASGYTFTNYYMHWVRQAPGQGLEWMGMINPSGGGTSYAQKFQGRVTMTRDTSTSTVYMELSSLRSEDTAVYYCARGNPWELRLDYWGQGTLVTVSS VL: DIQMTQSPSSLSASVGDRVTITCQASQDISNYLNWYQQKPGKAPKLLIYAASSLQSGVPSRFSGSGSGTDFTLTISSLQPEDFATYYCQQYYSYPFTFGPGTKVDIK
44.4 | 0.0323 | 1.06e+06 | G2(1B06) Fab (Fab, V domains shown, Fab) VH: QVQLVQSGAEVKKPGASVKVSCKASGGTFSNYILSWVRQAPGQGLEWMGWINPDSGGTNYAQKFQGRVTMTRDTSTSTVYMELSSLRSEDTAVYYCARGSYGMDVWGQGTTVTVSS VL: DIQMTQSPSSLSASVGDRVTITCRASQSISRWLAWYQQKPGKAPKLLIYAASSLQSGVPSRFSGSGSGTDFTLTISSLQPEDFATYYCQQSYSTPYTFGQGTKLEIK
28.1 | 0.0172 | 633000 | G2(2A11) Fab (Fab, V domains shown, Fab) VH: EVQLLESGAEVKKPGASVKVSCKASGYTFTTYDLAWVRQAPGQGLEWMGWINPNSGGTNYAQKFQGRVTMTRDTSTSTVYMELSSLRSEDTAVYYCARANWLDYWGQGTLVTVSS VL: DIQMTQSPSSLSASVGDRVTITCRASQDISRWLAWYQQKPGKAPKLLIYAASRLQAGVPSRFSGSGSGTDFTLTISSLQPEDFATYYCQQSYSTPYSFGQGTKLEIK
15.5 | 0.0148 | 952000 | G2(1H01) Fab (Fab, V domains shown, Fab) VH: QVQLVQSGAEVKKPGASVKVSCKASGYTFTRYTINWVRQAPGQGLEWMGWINPNSGGTNYAQKFQGRVTMTRDTSTSTVYMELSSLRSEDTAVYYCARDFVGYDDWGQGTLVTVSS VL: DIQMTQSPSSLSASVGDRVTITCRASQSVGNWLAWYQQKPGKAPKLLIYGASSLQTGVPSRFSGSGSGTDFTLTISSLQPEDFATYYCQQSYSAPYTFGQGTKVEIK
109 | 0.036 | 332000 | G2(2A03) Fab (Fab, V domains shown, Fab) VH: QVQLVQSGAEVKKPGASVKVSCKASGYTFTSYTVNWVRQAPGQGLEWMGWINPNSGGTKYAQNFQGRVTMTRDTSTSTVYMELSSLRSEDTAVYYCARGGGGALDYWGQGTLVTVSS VL: DIQMTQSPSSLSASVGDRVTITCRASQSISSWLAWYQQKPGKAPKLLIYAASTLQSGVPSRFSGSGSGTDFTLTISSLQPEDFATYYCQQSYLPPYSFGQGTKLEIK
22.8 | 0.00728 | 366000 | G2(1B12) Fab (Fab, V domains shown, Fab) VH: QVQLVQSGAEVKKPGASVKVSCKASGYTFTSYGITWVRQAPGQGLEWMGWINPNSGGTNYAQKFQGRVTMTRDTSTSTVYMELSSLRSEDTAVYYCARDYGDLDYWGQGTLVTVSS VL: DIQMTQSPSSLSASVGDRVTITCRASQNIGNWLAWYQQKPGKAPKLLIYAASTLQTGVPSRFSGSGSGTDFTLTISSLQPEDFATYYCQQSYSAPYSFGQGTKLEIK
